Measured values: the supplement of paper PMC10126150
± gives the standard deviation of the averaged measurements.

tested on: ATP; assay: switch fluorescence ratio, 500 uM ATP over buffer (Cy3 cluster intensity, sum of 5 cycles each) (fold (ratio)); higher = stronger signal-on switching upon ATP binding; sequences stand for … in TCGTCGGCAGCGTCAGATGTGTATAAGAGACAGTTTTTTTTTTTTTTTTTTTTTTTTT…TC; settings: aptamer strand: ATP DNA aptamer (quencher-CACCTGGGGGAGTATTGCGGAGGAAGG + anchor), 100 nM annealed; ATP concentration: 500 uM
In short: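 Imaging in selection buffer was followed by imaging after 15 min with 500 uM ATP at 22 °C, for Cy3-labelled switching-strand clusters annealed to 100 nM quencher-labelled ATP aptamer on a modified Illumina MiSeq flow-cell. Five of these buffer/ATP cycles ran, separated by NaOH stripping and re-annealing. The fluorescence ratio per cluster is summed target-cycle over summed buffer-cycle Cy3 intensity, averaged per switch-domain sequence; clusters outside 100-1000 RFU were removed.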
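Note: ATP exposure 15 min at 22 °C before imaging.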

Sequence | switch fluorescence ratio
GATACCCATA | 0.996 ± 0.016
GATACCCTTG | 1.01 ± 0.013
GATACGATGG | 0.983 ± 0.027
GATACTGTAG | 1.09 ± 0.049
GATACTGTTG | 0.988 ± 0.027
GATAGAAGGT | 1.04 ± 0.056
GATAGATGGC | 0.989 ± 0.039
GATAGATTTA | 0.9977 ± 0.0033
GATAGCCAAT | 1.02 ± 0.016
GATAGGAGGA | 1 ± 0.027
GATAGGGTTT | 1.06 ± 0.076
GATAGGTTCG | 0.983 ± 0.016
GATAGTAATG | 1.01 ± 0.018
GATAGTACGG | 1.01 ± 0.015
GATAGTATTT | 1.005 ± 0.0066
GATAGTGAAT | 0.962 ± 0.028
GATAGTGAGA | 1.03 ± 0.011
GATAGTGAGG | 0.9935 ± 0.0021
GATAGTGAGT | 0.988 ± 0.016
GATAGTGCTG | 1.05 ± 0.12
GATAGTGGCA | 1.03 ± 0.023
GATAGTGTTG | 0.992 ± 0.041
GATAGTTGGT | 1 ± 0.021
GATATACTTT | 0.99 ± 0.027
GATATATCAG | 0.9771 ± 0.0017

Sequence | switch fluorescence ratio
GATATGAGCG | 1.002 ± 0.0018
GATATGATAC | 1.077 ± 0.008
GATATGCCTG | 1.01 ± 0.069
GATATGTGGA | 0.995 ± 0.032
GATATTAAGC | 1.01 ± 0.026
GATATTAATT | 0.9784 ± 0.0031
GATATTAGGC | 0.9858 ± 0.009
GATATTATTC | 1.05 ± 0.079
GATATTGGTG | 1.024 ± 0.003
GATATTTGGT | 0.989 ± 0.048
GATATTTTTT | 0.989 ± 0.012
GATCAATGGG | 0.997 ± 0.036
GATCAGATGT | 0.958 ± 0.048
GATCAGCCCC | 1.02 ± 0.031
GATCAGTTTT | 0.977 ± 0.016
GATCATAATA | 0.995 ± 0.043
GATCATCGGG | 0.995 ± 0.015
GATCATGTAC | 1.14 ± 0.036
GATCATGTTT | 0.98194 ± 0.00037
GATCATTCTG | 0.966 ± 0.036
GATCCAAGGG | 1.01 ± 0.021
GATCCACGTG | 1.03 ± 0.015
GATCCCCCCC | 1.06 ± 0.03
GATCCGAGAC | 1.516 ± 0.0088
GATCCGGCGT | 1.03 ± 0.053

Sequence | switch fluorescence ratio
GATCCTTGGG | 1.022 ± 0.0056
GATCGACTTT | 0.958 ± 0.012
GATCGAGGGA | 1.04 ± 0.14
GATCGAGTTA | 1.034 ± 0.0073
GATCGGCGCG | 0.986 ± 0.025
GATCGGGGTT | 0.994 ± 0.036
GATCGGTAAA | 0.999 ± 0.013
GATCGTAATT | 1.06 ± 0.0044
GATCGTCTGC | 0.925 ± 0.035
GATCTATGTC | 0.989 ± 0.066
GATCTATGTG | 1.01 ± 0.042
GATCTATGTT | 0.996 ± 0.018
GATCTGAACT | 1 ± 0.059
GATCTGCACG | 0.9947 ± 0.0032
GATCTGTCAG | 1.01 ± 0.021
GATCTTGCCT | 1.02 ± 0.026
GATGAAAGTG | 0.99 ± 0.025
GATGAACGTT | 0.984 ± 0.041
GATGAAGGTG | 1.28 ± 0.061
GATGAAGTTG | 0.971 ± 0.029
GATGAGCCTA | 1.01 ± 0.073
GATGAGGGCG | 1.14 ± 0.23
GATGAGGGGG | 1.03 ± 0.09
GATGAGTATA | 1 ± 0.021
GATGAGTGTG | 0.964 ± 0.041

Sequence | switch fluorescence ratio
GATGATATGG | 0.9852 ± 0.0039
GATGATCTTT | 0.966 ± 0.014
GATGATTTGG | 1.02 ± 0.021
GATGATTTTG | 0.979 ± 0.047
GATGCAAAGG | 1.131 ± 0.011
GATGCAGTGT | 1.05 ± 0.014
GATGCAGTTT | 1.03 ± 0.019
GATGCGAAAT | 1.06 ± 0.023
GATGCGCGTG | 1 ± 0.019
GATGCGGCGT | 1.04 ± 0.021
GATGCGTATG | 0.997 ± 0.02
GATGCTGGGT | 1.01 ± 0.014
GATGGAACGG | 1.05 ± 0.039
GATGGACGTT | 0.995 ± 0.035
GATGGACTTT | 1.03 ± 0.013
GATGGAGTAA | 1.08 ± 0.042
GATGGATAGT | 0.992 ± 0.02
GATGGCGGTG | 0.995 ± 0.00091
GATGGGCACT | 1.05 ± 0.029
GATGGGCGGG | 1.03 ± 0.055
GATGGGGAGG | 0.98 ± 0.032
GATGGGGGAG | 0.999 ± 0.018
GATGGGGGGC | 1.01 ± 0.043
GATGGGGTTT | 1 ± 0.014
GATGGGTAAA | 0.992 ± 0.029

Sequence | switch fluorescence ratio
GATGGTGGTG | 1 ± 0.029
GATGGTTTGA | 1.02 ± 0.021
GATGTAAACG | 1.02 ± 0.026
GATGTAAGAA | 0.993 ± 0.028
GATGTAAGGT | 1.02 ± 0.029
GATGTAATAG | 1.57 ± 0.19
GATGTAGGAG | 0.971 ± 0.019
GATGTAGGGC | 1 ± 0.028
GATGTATAGA | 1.01 ± 0.022
GATGTATATT | 1.002 ± 0.004
GATGTATGTG | 1.02 ± 0.042
GATGTCTAGT | 0.983 ± 0.015
GATGTCTGGG | 0.959 ± 0.027
GATGTGAATT | 1.02 ± 0.011
GATGTGATTC | 1.04 ± 0.027
GATGTGGGGG | 0.99 ± 0.028
GATGTGGGTA | 0.992 ± 0.045
GATGTGGGTG | 0.9957 ± 0.0054
GATGTGGGTT | 1.03 ± 0.032
GATGTGTTTT | 0.974 ± 0.02
GATGTTAAGC | 0.9867 ± 0.0095
GATGTTATCG | 0.99 ± 0.015
GATGTTGATT | 0.997 ± 0.014
GATGTTGTGA | 0.9999 ± 0.0076
GATGTTGTTG | 0.997 ± 0.054

Sequence | switch fluorescence ratio
GATGTTTAGT | 1.04 ± 0.018
GATTAAAAGG | 1.017 ± 0.0067
GATTAAATAG | 0.9988 ± 0.0032
GATTAATGGC | 1.04 ± 0.052
GATTACATTT | 1.03 ± 0.022
GATTAGGGGA | 1.01 ± 0.015
GATTAGGGGG | 1.02 ± 0.043
GATTAGTGTT | 1.01 ± 0.021
GATTATGGGG | 1.01 ± 0.013
GATTATTGGG | 0.988 ± 0.036
GATTCCCTAT | 0.99995 ± 0.00076
GATTCCTCAT | 1.015 ± 0.0095
GATTCGGTCT | 1.02 ± 0.058
GATTCGGTTG | 0.9897 ± 0.0011
GATTCGTACG | 1.01 ± 0.016
GATTCTCGGG | 1.01 ± 0.016
GATTCTTATG | 1.03 ± 0.036
GATTCTTGAA | 1.01 ± 0.22
GATTGAATAT | 0.983 ± 0.032
GATTGAATCC | 1.01 ± 0.059
GATTGAATTG | 0.948 ± 0.027
GATTGAGAAG | 0.996 ± 0.023
GATTGAGTAG | 0.986 ± 0.016
GATTGGCGAG | 0.998 ± 0.011
GATTGGGCTT | 0.998 ± 0.0097

Sequence | switch fluorescence ratio
GATTGGTGGC | 1.04 ± 0.049
GATTGTACGA | 1.01 ± 0.031
GATTGTACTA | 0.998 ± 0.019
GATTGTAGTG | 0.993 ± 0.032
GATTGTGCGG | 0.981 ± 0.025
GATTGTGCTG | 0.988 ± 0.01
GATTGTGGAC | 1.1 ± 0.063
GATTTAGAGC | 0.973 ± 0.037
GATTTAGCTA | 1.014 ± 0.0034
GATTTAGGAC | 0.967 ± 0.044
GATTTAGGGA | 0.995 ± 0.039
GATTTATGAC | 1.02 ± 0.038
GATTTCAAAC | 0.9817 ± 0.0045
GATTTCATAG | 1.02 ± 0.063
GATTTGAAAC | 1 ± 0.031
GATTTGAGGG | 0.973 ± 0.032
GATTTGCCGA | 1.034 ± 0.005
GATTTGGAAG | 1.01 ± 0.024
GATTTGGAGA | 1 ± 0.017
GATTTGGCGA | 0.992 ± 0.011
GATTTGGCTC | 1 ± 0.031
GATTTGGTTG | 0.963 ± 0.026
GATTTGTGTG | 0.978 ± 0.034
GATTTTAATG | 0.981 ± 0.013
GATTTTAGTT | 0.9848 ± 0.0086

Sequence | switch fluorescence ratio
GATTTTATGT | 1.05 ± 0.086
GATTTTCGAA | 1 ± 0.041
GATTTTCGAG | 0.994 ± 0.031
GATTTTGGAC | 1.031 ± 0.0078
GATTTTGGTG | 0.971 ± 0.023
GATTTTGTTA | 1.01 ± 0.025
GATTTTGTTG | 0.979 ± 0.014
GATTTTTAAA | 1.02 ± 0.035
GATTTTTCAG | 1.019 ± 0.006
GATTTTTTGC | 0.98176 ± 0.00098
GATTTTTTTG | 0.985 ± 0.037
GATTTTTTTT | 0.989 ± 0.029
GCAAAATTTC | 1.02 ± 0.085
GCAAAGCGTC | 0.9824 ± 0.0083
GCAAATGGTT | 1.01 ± 0.053
GCAAATTCCG | 1.026 ± 0.0095
GCAACGGGTC | 1.03 ± 0.025
GCAACGGGTT | 1.16 ± 0.21
GCAACTATT | 2.42 ± 2
GCAAGAACGC | 1.096 ± 0.0023
GCAAGGGTAT | 1.01 ± 0.025
GCAAGGGTGG | 1 ± 0.038
GCAAGGTAGC | 1.07 ± 0.011
GCAAGTAGGG | 1.02 ± 0.019
GCAAGTGTTC | 1.01 ± 0.018
